Assay results published in patent publication US20240270821A1, “GIP/GLP1/GCG TRI-RECEPTOR AGONISTS AND USES THEREOF” (priority 2023, published 2024).
Where a chain is given by its changes, count along the chain named.

T1: human GIP receptor (human) (UniProt P48546)
T1 sequence (looked up): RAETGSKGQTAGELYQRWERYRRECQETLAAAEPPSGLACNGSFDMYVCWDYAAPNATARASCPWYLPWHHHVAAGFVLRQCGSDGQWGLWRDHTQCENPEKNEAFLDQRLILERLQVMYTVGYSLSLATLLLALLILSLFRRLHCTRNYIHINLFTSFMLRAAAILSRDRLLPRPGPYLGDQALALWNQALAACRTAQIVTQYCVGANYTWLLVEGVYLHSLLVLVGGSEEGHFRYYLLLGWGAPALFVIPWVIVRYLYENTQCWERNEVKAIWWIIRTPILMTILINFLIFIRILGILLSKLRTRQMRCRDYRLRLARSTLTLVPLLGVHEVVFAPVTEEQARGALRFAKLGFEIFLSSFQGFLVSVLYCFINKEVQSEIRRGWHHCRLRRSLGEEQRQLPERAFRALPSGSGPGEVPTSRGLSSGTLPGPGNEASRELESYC

B1: Example 1197 (peptide)
chain: YXQGTXTSDXXIXLDXKAQXEFIEXLIEGGPPSXXPPPXGGGE
modifications: Lys acylated AEEA-γGlu-C18 diacid; non-natural residues; C-amide; synthetic construct; SITE 2: note = 2-Aminoisobutyric Acid; SITE 6: note = alpha-methyl-2-fluoro-L-phenylalanine; SITE 10: note = 3-(4-Pyridyl)-L-alanine; SITE 11: note = alpha-methyl-L-serine; SITE 13: note = alpha-methyl-leucine; SITE 16: note = L-ornithine; SITE 17: note = Lysine is chemically mo
B2: Example 1199 (peptide)
chain: B1 chain with X39S
modifications: Lys acylated with AEEA-γGlu-C18 diacid; non-natural residues; C-amide; synthetic construct; SITE 2: note = 2-Aminoisobutyric Acid; SITE 6: note = alpha-methyl-2-fluoro-L-phenylalanine; SITE 10: note = 3-(4-Pyridyl)-L-alanine; SITE 11: note = alpha-methyl-L-serine; SITE 13: note = alpha-methyl-leucine; SITE 16: note = L-ornithine; SITE 17: note = Lysine is chemically mo
B3: Example 1201 (peptide)
chain: B1 chain with X35E, X39S
modifications: non-natural residues; acylated Lys; C-terminal amide; synthetic construct; SITE 2: note = 2-Aminoisobutyric Acid; SITE 6: note = alpha-methyl-2-fluoro-L-phenylalanine; SITE 10: note = 3-(4-Pyridyl)-L-alanine; SITE 11: note = alpha-methyl-L-serine; SITE 13: note = alpha-methyl-leucine; SITE 16: note = L-ornithine; SITE 17: note = Lysine is chemically mo
B4: Example 1204 (peptide)
chain: YXQATXTSDXXIXLDXKAQXEFIEXLVEGGPSSGAPPPSGS
modifications: synthetic construct; SITE 2: note = 2-Aminoisobutyric Acid; SITE 4: note = D-amino acid; SITE 6: note = alpha-methyl-2-fluoro-L-phenylalanine; SITE 10: note = 3-(4-Pyridyl)-L-alanine; SITE 11: note = alpha-methyl-L-serine; SITE 13: note = alpha-methyl-leucine; SITE 16: note = L-ornithine; SITE 17: n
B5: Example 1210 (peptide)
chain: B4 chain with A4G, K17X
modifications: synthetic construct; SITE 2: note = 2-Aminoisobutyric Acid; SITE 6: note = alpha-methyl-2-fluoro-L-phenylalanine; SITE 10: note = 3-(4-Pyridyl)-L-alanine; SITE 11: note = alpha-methyl-L-serine; SITE 13: note = alpha-methyl-leucine; SITE 16: note = L-ornithine; SITE 17: note = Ornithine is chemically
B6: Example 1198 (peptide)
chain: YXQGTXTSDXXIXLDXKAQXEFIEXLIEGGPPSXXPPPSGSE
modifications: non-natural residues; lysine acylated AEEA-γGlu-C18 diacid; C-terminal amide; synthetic construct; SITE 2: note = 2-Aminoisobutyric Acid; SITE 6: note = alpha-methyl-2-fluoro-L-phenylalanine; SITE 10: note = 3-(4-Pyridyl)-L-alanine; SITE 11: note = alpha-methyl-L-serine; SITE 13: note = alpha-methyl-leucine; SITE 16: note = L-ornithine; SITE 17: note = Lysine is chemically mo
B7: Example 1200 (peptide)
chain: B6 chain with X35E
modifications: non-natural residues, acylated Lys (AEEA-γGlu-C18 diacid), C-terminal amide; synthetic construct; SITE 2: note = 2-Aminoisobutyric Acid; SITE 6: note = alpha-methyl-2-fluoro-L-phenylalanine; SITE 10: note = 3-(4-Pyridyl)-L-alanine; SITE 11: note = alpha-methyl-L-serine; SITE 13: note = alpha-methyl-leucine; SITE 16: note = L-ornithine; SITE 17: note = Lysine is chemically mo
B8: Example 1189 (peptide)
chain: YXQGTXTSDXXIXLDXKAQXEFIEXLIEGGPPSXXPPPXGS
modifications: non-natural residues, C-terminal amide, acylated Lys with fatty diacid; synthetic construct; SITE 2: note = 2-Aminoisobutyric Acid; SITE 6: note = alpha-methyl-2-fluoro-L-phenylalanine; SITE 10: note = 3-(4-Pyridyl)-L-alanine; SITE 11: note = alpha-methyl-L-serine; SITE 13: note = alpha-methyl-leucine; SITE 16: note = L-ornithine; SITE 17: note = Lysine is chemically mo
B9: Example 1193 (peptide)
chain: B8 chain with X35E, S41E
modifications: non-natural residues (Aib, αMeF(2F), 4Pal, Orn, Me4Pal); lipidated Lys; C-amide; synthetic construct; SITE 2: note = 2-Aminoisobutyric Acid; SITE 6: note = alpha-methyl-2-fluoro-L-phenylalanine; SITE 10: note = 3-(4-Pyridyl)-L-alanine; SITE 11: note = alpha-methyl-L-serine; SITE 13: note = alpha-methyl-leucine; SITE 16: note = L-ornithine; SITE 17: note = Lysine is chemically mo
B10: Example 1192 (peptide)
chain: B8 chain with P32S, X35A, X39E, S41E
modifications: non-natural residues; AEEA-γGlu-C18 diacid on Lys; C-terminal amide; synthetic construct; SITE 2: note = 2-Aminoisobutyric Acid; SITE 6: note = alpha-methyl-2-fluoro-L-phenylalanine; SITE 10: note = 3-(4-Pyridyl)-L-alanine; SITE 11: note = alpha-methyl-L-serine; SITE 13: note = alpha-methyl-leucine; SITE 16: note = L-ornithine; SITE 17: note = Lysine is chemically mo
B11: Example 1202 (peptide)
chain: B4 chain with A4G, E24Q, V27I
modifications: synthetic construct; SITE 2: note = 2-Aminoisobutyric Acid; SITE 6: note = alpha-methyl-2-fluoro-L-phenylalanine; SITE 10: note = 3-(4-Pyridyl)-L-alanine; SITE 11: note = alpha-methyl-L-serine; SITE 13: note = alpha-methyl-leucine; SITE 16: note = L-ornithine; SITE 17: note = Lysine is chemically mo
B12: Example 1195 (peptide)
chain: B8 chain with S41E
modifications: non-natural residues; acylated Lys; C-terminal amide; synthetic construct; SITE 2: note = 2-Aminoisobutyric Acid; SITE 6: note = alpha-methyl-2-fluoro-L-phenylalanine; SITE 10: note = 3-(4-Pyridyl)-L-alanine; SITE 11: note = alpha-methyl-L-serine; SITE 13: note = alpha-methyl-leucine; SITE 16: note = L-ornithine; SITE 17: note = Lysine is chemically mo
B13: Example 1194 (peptide)
chain: B8 chain with X39E, S41E
modifications: non-natural residues; lipidated Lys; C-terminal amide; synthetic construct; SITE 2: note = 2-Aminoisobutyric Acid; SITE 6: note = alpha-methyl-2-fluoro-L-phenylalanine; SITE 10: note = 3-(4-Pyridyl)-L-alanine; SITE 11: note = alpha-methyl-L-serine; SITE 13: note = alpha-methyl-leucine; SITE 16: note = L-ornithine; SITE 17: note = Lysine is chemically mo

Columns and labels:
Assay in all cases: cell-based or functional assay
hGLP-1R = hGLP-1R (Homo sapiens, UniProt P43220)
[1] = biological target: T1, human GIP receptor (human)
[2] = biological target: human glucagon receptor (human) (UniProt P47871)
Sequence of human glucagon receptor (human) (P47871 26-477): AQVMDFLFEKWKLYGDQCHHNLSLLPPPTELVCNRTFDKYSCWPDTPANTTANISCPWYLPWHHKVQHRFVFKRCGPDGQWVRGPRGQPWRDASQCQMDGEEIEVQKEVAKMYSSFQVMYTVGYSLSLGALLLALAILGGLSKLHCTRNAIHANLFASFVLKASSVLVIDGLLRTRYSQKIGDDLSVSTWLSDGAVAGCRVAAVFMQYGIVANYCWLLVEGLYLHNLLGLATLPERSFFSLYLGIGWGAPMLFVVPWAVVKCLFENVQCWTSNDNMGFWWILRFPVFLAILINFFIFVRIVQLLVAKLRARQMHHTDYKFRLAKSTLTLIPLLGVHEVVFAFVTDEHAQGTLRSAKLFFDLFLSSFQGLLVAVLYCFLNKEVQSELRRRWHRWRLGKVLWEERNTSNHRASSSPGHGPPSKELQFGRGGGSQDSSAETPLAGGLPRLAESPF

Sequence of hGLP-1R (P43220 24-463): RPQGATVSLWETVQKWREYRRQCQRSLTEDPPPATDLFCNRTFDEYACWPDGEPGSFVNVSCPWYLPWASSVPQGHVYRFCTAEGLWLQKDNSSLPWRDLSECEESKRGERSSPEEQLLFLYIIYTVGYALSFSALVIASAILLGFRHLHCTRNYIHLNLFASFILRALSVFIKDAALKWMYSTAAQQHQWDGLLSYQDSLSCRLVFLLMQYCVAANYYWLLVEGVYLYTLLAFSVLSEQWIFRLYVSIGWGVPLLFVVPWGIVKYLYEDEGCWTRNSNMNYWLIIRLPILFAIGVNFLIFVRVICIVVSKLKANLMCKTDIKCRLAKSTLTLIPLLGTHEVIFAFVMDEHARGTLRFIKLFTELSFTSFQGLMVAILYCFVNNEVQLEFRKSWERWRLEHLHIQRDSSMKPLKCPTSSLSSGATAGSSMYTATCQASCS

Row | Binder | Relative cAMP EC50 (hGLP-1R) | cAMP Rel EC50 (in the presence of 1% HSA) (hGLP-1R) | Relative cAMP EC50 [1] | cAMP Rel EC50 (in the presence of 1% HSA) [1] | Relative cAMP EC50 [2] | cAMP Rel EC50 (in the presence of 1% HSA) [2] | cAMP Rel EC50 (1% HSA) (hGLP-1R) | cAMP Rel EC50 (1% HSA) [1] | cAMP Rel EC50 (1% HSA) [2]
1 | B1 | 0.407 nM | 46.1 nM | 0.00666 nM | 0.639 nM | 1.88 nM | 288 nM | – | – | –
2 | B2 | 0.5 nM | 63.9 nM | 0.0076 nM | 0.733 nM | 2.05 nM | 352 nM | – | – | –
3 | B3 | 0.888 nM | 93.9 nM | 0.00959 nM | 1.02 nM | 1.76 nM | 234 nM | – | – | –
4 | B4 | 0.338 nM | – | 0.21 nM | – | 3.5 nM | – | 37.4 nM | 15.8 nM | 507 nM
5 | B5 | 0.375 nM | – | 0.00704 nM | – | 2.25 nM | – | 38.1 nM | 0.635 nM | 288 nM
6 | B6 | 0.475 nM | 61 nM | 0.00663 nM | 0.67 nM | 1.8 nM | 314 nM | – | – | –
7 | B7 | 0.727 nM | 91.4 nM | 0.00883 nM | 0.896 nM | 1.5 nM | 278 nM | – | – | –
8 | B8 | 0.292 nM | 45.4 nM | 0.00597 nM | 0.584 nM | 1.59 nM | 248 nM | – | – | –
9 | B9 | 0.544 nM | 66.2 nM | 0.00897 nM | 0.803 nM | 1.56 nM | 202 nM | – | – | –
10 | B10 | 0.499 nM | 59.5 nM | 0.00924 nM | 1.06 nM | 1.54 nM | 218 nM | – | – | –
11 | B11 | 0.237 nM | – | 0.00635 nM | – | 0.5 nM | – | 23.1 nM | 0.471 nM | 70.3 nM
12 | B12 | 0.367 nM | 44.2 nM | 0.00708 nM | 0.637 nM | 1.74 nM | 242 nM | – | – | –
13 | B13 | 0.51 nM | 57.4 nM | 0.00725 nM | 0.759 nM | 2.02 nM | 215 nM | – | – | –
